Measured values from patent US20090263864A1 (CRUCELL HOLLAND B V, published 2009).

Target: T1, CD46 on human coloncarcinoma LS174T cells (human, UniProt P15529 35-392)
T1 construct: whole, on cells
T1 sequence (looked up): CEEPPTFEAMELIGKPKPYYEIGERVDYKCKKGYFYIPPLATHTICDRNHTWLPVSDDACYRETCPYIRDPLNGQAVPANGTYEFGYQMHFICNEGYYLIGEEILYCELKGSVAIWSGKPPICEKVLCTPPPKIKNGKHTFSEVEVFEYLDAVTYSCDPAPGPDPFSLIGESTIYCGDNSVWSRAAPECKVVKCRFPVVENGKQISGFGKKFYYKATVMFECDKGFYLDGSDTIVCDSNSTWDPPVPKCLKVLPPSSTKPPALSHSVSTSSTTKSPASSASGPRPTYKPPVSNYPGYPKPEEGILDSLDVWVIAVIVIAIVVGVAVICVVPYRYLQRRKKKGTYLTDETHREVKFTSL
Assay: FACS on LS174T cells preincubated with normal human serum; biotinylated antibody, streptavidin-PE; MFI
Description: Binding (MFI, ordinate) was determined by FACS after incubation with streptavidin-conjugated phycoerythrin.

EC50 (read off the curve): ~3 µg/mL
B1: K53 IgG (antibody, V domains shown)
VH: QVQLVQSGAEVKKPGASVKVSCKASGYTFTSYGISWVRQAPGQGLEWMGWISAYNGNTNYAQKLQGRVTMTTDTSTSTAYMELRSLRSDDTAVYYCARGMMRGVFDYWGQGTLVTVST
VL: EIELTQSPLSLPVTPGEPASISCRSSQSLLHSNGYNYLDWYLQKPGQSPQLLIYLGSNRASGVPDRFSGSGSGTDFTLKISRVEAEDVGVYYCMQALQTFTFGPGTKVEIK
notes: also called clone K53; anti-CD46 clone K53
